These results are taken from the nanobody polyreactivity screen of Harvey et al. (2022).

The data set in a line: yeast display, Sf9 membrane polyspecificity reagent, FACS + sequencing; frameworks hold sequencing errors. The method in brief: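 After 36–48 hours of galactose induction, yeast (Saccharomyces cerevisiae BJ5465) displaying a synthetic nanobody library were stained at 4 °C for 1 hour with 10% biotinylated, detergent-solubilized Sf9 membrane reagent. Streptavidin microbeads enriched the stained cells before FACS sorting into low and high (top ~1%) gates on anti-HA and streptavidin fluorescence. Each clone's polyreactivity label reflects its gate of origin.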
On to “QVQLVESGGGLVQAGGSLRLSCAASGRIFADYAMGWYRQAPGKERELVADIRQSGGRTYYADSVKGRFTISRDNAKNTVYLQMNSLNPEDTAVYYCATDYGSWGDYSGKYDYWGQGTQVTVSS”, for which the “polyreactivity (PSR sort gate)” value is “low polyreactivity”.

Consider “QVQHVESGGGLVQAGGSLRLSCASSGSIFVGNAMGWYRQAPGKERELVAAISRRGGRPYYADSVKGRFTISRDKAKNTVYLQMNSLKPEDTAVYYCAAEYTYQNRIRFDYWGQGTQVTVSS”, for which the “polyreactivity (PSR sort gate)” value was “high polyreactivity”.

For “QVQLVESGGGLVQAGGRLRLSCAASGYIFKNYAMGWDRQAPGKERELVATINYSGGGTYYADSVKGRFTISRDNAKNTVYLQMNSLKQEDTAVYYCAAREKYISYSYYYWGQGTQVTVSS”, the “polyreactivity (PSR sort gate)” value is given as “high polyreactivity”.

Take “QVQLVESGGGLVQAGGSLRLSCAASGSIFEKYAMGWYRQAPGKERELVAAISRGTNTKYADSVKGRFTISRDNAKNTVYLQMNSLKPEDTAVYNGAARYNTYRTRIYSMDYWGQGTQVTVSS”: the “polyreactivity (PSR sort gate)” value is “high polyreactivity”.

Consider “QVQLVESGGGLVQAGGSLRLSCAASGGTFKYYDMGWYRQAPGKEREFVAAISKRVSSTYYADSVKGRFTISRDNAKNTVYLQMNSLKPEDTAVYYCAAYPVRYYNQYDYWGQGTQVTVSS”, for which the “polyreactivity (PSR sort gate)” value is “low polyreactivity”.

Regarding “QVQLVESGGGLVQAGGSLRLSCAASGFTFYKNTMGWYRQAPGKERELVAAISGSGGRTYYADSVKGRFTISRDNAKNTVYLQMTSLKPEDTAVYYCNAAARYRWQYVYSLYEYGHWGQGTQVTVSS”, the “polyreactivity (PSR sort gate)” value was “high polyreactivity”.

Take “QVQLVESGGGLVQAGGSLRLTCDASGFTFPFYTMGWYRQEPGKERELVAAISASGGRTYYADSVKGRFTISRDNAKNTVYLQMNSLKPEDTGVYYCATYPTPKYFRWRGDYWGQGTQVTVSS”: the “polyreactivity (PSR sort gate)” value is recorded as “high polyreactivity”.

In the case of “QVQIVESGGRLVQAGGSLRLSCAASGNIFRYNAMGWYRQAPGKERELVAAITLSGGDTYYADSVKGRFTISRDNAKNIVYLQMNSLKPEDTAVYYCAKDPRSDYTDGMNYWGQGTQLTVSS”, the “polyreactivity (PSR sort gate)” value is “low polyreactivity”.

As to “QVQLVESGGGLVQAGGSLRLSCAASGITFQWYAMGWYRQAPGKERELVAAITYRGGSTYYADSVKGRFTISRDNAKNTVYLQMNSLKPEDTAVYYCARDHSRHLHPSWLDYWGQGTQVTVSS”, the “polyreactivity (PSR sort gate)” value is recorded as “high polyreactivity”.

Consider “QVQLVESGGGLVQAGGSLRLSCAASGLTFHYYDMGWYRQAPGKERELVAAISTGGGTYYADSVKGRFTISRDNAKNTVYLQMNSLKPEDTAVYYCAAETQHSYFVFSYYWGQGTQVTVSS”, for which the “polyreactivity (PSR sort gate)” value is given as “high polyreactivity”.

In the case of “QVQLVESGGGLVQAGGSLRLSCAASGITFYDYAMGWSRQAPGKDRELVSAINSSGVRTYYADSVKGRFTISRDNAKNTVYLQMNSLKPEDTAVYYCAAERYYYFVPYWYDYWGQGTQVTVSS”, the “polyreactivity (PSR sort gate)” value was “high polyreactivity”.

With “QDQLVESGGGLVQAGGSLSLSCAASGRTFAVYAMGWYRQAPGKEMELVAAITQSGGSTYYADSVKGRFTISRDNAKNTVYLQINSMKPEDTAVYYCAKTGRFPYTAGQSFGYDYWGQGTQVTVSS”, the “polyreactivity (PSR sort gate)” value is on record as “low polyreactivity”.

With “QVQLVESGGGLVQSGGSLRLSCAASGYIFFFNAMGWYRQAPGKERELVAAITRRGVSTYYADSVKGRCTISRDNAKNTVFLQMNSLKPEDTAVYYCATEHNHLGYYYWGQGTQVTVSS”, the “polyreactivity (PSR sort gate)” value is given as “low polyreactivity”.

Regarding “QVQLVESAGGLVLAGGSLRLSCAASGRIFARNAMGWYRQAAGKEREFVAGITWSGSSTYYADSVKARFTISRDNAKNTVYLQMNSLKPEDTAVYYCAVDNYVGSLRIDHDYWGLGTQVTVSS”, the “polyreactivity (PSR sort gate)” value is “low polyreactivity”.

With “QVQLVVSGGGLVQAGGSLLLSCAASGFTFYSYAMGWYRQAPGKERELVAGISWSGTRTYYADSVKGRFTISRDNAKNTVYLQMISLKPEDTAVYYCAARGYRYGYGYWGQGTQVTVSS”, the “polyreactivity (PSR sort gate)” value is reported as “high polyreactivity”.

Regarding “QVQLVESGGGLVQAGGSLRLSCAASGSTFVYNAMGWYRQAPGKEREFVAVINWSGGRTYADSVKGRFTISRDNAKNTVYLQMISLKPEDTEVYYCIARRRTGYRPAMDYWGQGTEVTVSS”, the “polyreactivity (PSR sort gate)” value is recorded as “high polyreactivity”.

Take “QVQLVESGGGLVQAGGSLRLSCSASGFIFGPNAMGWYRQAPGKEMELVAAISWMGSSTYYADSVKGRFTISRDNANNTVYLQMNSLKPEDTAVYYCAADSSERRLLDFDYWGQGTNVTVSS”: the “polyreactivity (PSR sort gate)” value is reported as “low polyreactivity”.

“QVQLVESGGGLVQAGGSLRLSCAASGSTLVIYAMGWYRQAPGKERELVAAISRGGTTYYADSVKGRFTISRDNAKNTVYLQMNSLKPEDTAVYYCAADARVKRYYFRKSGYWGQGTQVTVSS”: the “polyreactivity (PSR sort gate)” value is given as “high polyreactivity”.

“QVQLVESGGGLVQAGGSLRLSCAASGSIFTSNAMGWYRQAPGKERELVAAISWSGTSTYYADSVKGRFTISRDNAKNTVYLQMNSLKPEDTAVYYCNADTNYWEDDYWGQGTQVTVSS”: the “polyreactivity (PSR sort gate)” value is given as “low polyreactivity”.

For the sequence “QVQLVESGGCLVQAGGSLRLSCAASGSIFRYYAMGWNRQAPGKERELVAAISSSGDNTYYADSVKGRFTISRDNAKNTVYLQMNSLKPEDTAVYYCAVRGERRYIYDYWGQGSQVTVSS”, the “polyreactivity (PSR sort gate)” value is recorded as “high polyreactivity”.

Regarding “QVQLVESGGGLVQAGGSLRLSCAASGSIFASYVMGWYRQAPGKERELVAAITSRGTSTYYADSVKGRFTISRDNAKNTVYLQMNSLKPEDTAVYYCAARLYGSAPQHEYWGQGTQVTVSS”, the “polyreactivity (PSR sort gate)” value is on record as “low polyreactivity”.

Take “QVQLVESVGGLVQAGGSLRLSCAASGSIFSRNAMGWYRQAPGKERELVAAIRSTVSTYYADSVKGRFTISRDNAKNTVYLQMNSLKPEDTAVYYCATVTHVSPNKYYYWGQGTQVTVSS”: the “polyreactivity (PSR sort gate)” value is on record as “high polyreactivity”.

Regarding “QVQHVESGGGLVQAGGSLRLSCAASGLTFTAYVMGWYRQAPGKERELVAAIRISGGSTYYADSVKGRFTISRDNAKNTVYLQMKSLQPADTAVYYCATRHRHVTATDSRIGDYWGQGTQVTVSS”, the “polyreactivity (PSR sort gate)” value is recorded as “low polyreactivity”.

In the case of “QVQLVESGGGLVQAGGSLRLSCAASGSIFGPYAMGWYRQAHGKERELVAAITISGGSTYYADSVKRRFTISRDNAKNTVYLQINSLKPEDTAVYYCAADYWVDYEYDYYWEYNYWGQGSQVTVSS”, the “polyreactivity (PSR sort gate)” value is “high polyreactivity”.

“QVQLVESGGGLVQAGGSLRLSCAASGRSFVLYTMGWSRQAPGKEREWVAAISGSGGRTYYADSVKGRFTISRDHAKNTVNLQMNSLKPEDTAVYYCAAYGQGLPLYGYWGPGTQVTVSS”: the “polyreactivity (PSR sort gate)” value is “high polyreactivity”.

With “QVQLVESGGGLVQAGGSLRLSCAASGSTFWPYAMGWYRQAPGKERELVATIRWSGGSTSYADSVKGRFTISRDNAKNTVYVQMNSLKPEDTAVYYCAARDFHYYRFKTYGYWGQGTQVTVSS”, the “polyreactivity (PSR sort gate)” value is “high polyreactivity”.

Take “QVQLVESGGGLVQAGGSLRLSCAASGFIFPWYAMGWYRLAPGKERELVAIISWDTGSTYYADSVKGRFTISRDNAKNTVYLQMNSLKPEDTAVYYCVAYVCSTYSAPEYYWGQGTQVTVSS”: the “polyreactivity (PSR sort gate)” value is “low polyreactivity”.

For “QVQLVESGGGLVQAGGSLRLSCAASGSTFAGNAMGWYRQAPGKERELVAGITSSGARTYYADSVKGRFTISRDNAKNTVYLQMNSLKPEDTAVYYCNKYHFSPYDYWGQGTQVTVSS”, the “polyreactivity (PSR sort gate)” value is “high polyreactivity”.

As for “QVQLVESGGGLVQAGGSLRLSCAASGFIYRKNAMGWYRQAPGKERELVATITKSGDTTYYADSVKGRFTISRDNAKNTVYLQMNSLKPEDTAVYYCAAPLYYIGSWDYYVRYIYDYWGQGTQVTVSS”, the “polyreactivity (PSR sort gate)” value is “low polyreactivity”.

Take “QVQLVESGGGLVQAGGSLRLSCAASGYTFDQYAMGWYRQAPGKERELVAGIDSAGSTYYADSVKGRFTISRDNAKITVYLQMNSLKPEDTAVYYCNADDLNTEVPYYYWGQGTQVTGSS”: the “polyreactivity (PSR sort gate)” value was “low polyreactivity”.

For “QVQLVESGGGLVQAGGSLRLSCAASGRTFAQYAMGWYRQAPGKERELVAAITKRGGTTYYADSVKGRFTISRDNAKNTVYLQMNSLKPEDTAVYYCKAGGVVPSTYYWGQGTQVTVSS”, the “polyreactivity (PSR sort gate)” value was “high polyreactivity”.

Take “QDQLVESGGGLVQAGGSLRLSCAASGFTFGRYAMGWYRQAPGKERELVATITRTGSTNYADSVKGRFTISRDNAKNTVDLQMHSLKPEDTAVYYCNAVYSGWRYVKYDYWGPGTQVTVSS”: the “polyreactivity (PSR sort gate)” value is given as “low polyreactivity”.

Take “QVQLVESGGGLVQAGGSLRLSCAASGRTLRRYAMGWYRQAPGKERELVAAISRSGSSTYADSVKGRFTISRDNAKNTVSLQMNSLKPEDTAVYYCNAYQPRYGYWGQGTQVTVSS”: the “polyreactivity (PSR sort gate)” value is recorded as “high polyreactivity”.

On to “QVQLVESGGGLVQAGGSLRLSCAASGITFGYYAMGWYRQAPGKERELVAAISWSGDSTYYADSVKGRFTISRDNAKNTVSLQMNSLKPEDTPVYYCTRGSSWEYGAEYNYWGQGTQVTVSS”, for which the “polyreactivity (PSR sort gate)” value is “low polyreactivity”.

With “QVQLVESGGGLVQAGGSLRLSCAASGLTFLYYSMGWYRQAPGKERELVAAISTRGGSTYYADSVKGRFTISRDNAKNTVYLQMNSLKPEDTAVYYCNAKLIVTPGRGDYWGQGTQVSVSS”, the “polyreactivity (PSR sort gate)” value is listed as “high polyreactivity”.

On to “QVQLVESGGGLVQAGGSLRLSCAASGSIYLWKAMGWYRQAPGKERELVAAIDSGGSTYAESVKGRFTISRDNAKNTVYLQMNSLKPEDTAVYYCAAEIPDEWPYDYWGQGTQVTVSS”, for which the “polyreactivity (PSR sort gate)” value was “low polyreactivity”.

“QVQLVESGGGLDQAGGSLRLIFAASGRTFYRYAMGLYRQAPGKERELVAAISVRGGSTYYADSVKGRFTISRDNAKNTVYLQMNSLKPEDTAVYYCDAEYVAPWYIGLEVTRLIYWGQGTQVTVSS”: the “polyreactivity (PSR sort gate)” value is “high polyreactivity”.

Consider “QVQLVESGGGLVQAGGSLRLSCAASGSTFYYYAMGWYRQAPGKEMELVAAINWSGASTYYADSVKGRFTISRDNAKNTVYLQMNSLIPEDTAVYYCAAGYAGGYGVTFDYCGQGTQVTVSS”, for which the “polyreactivity (PSR sort gate)” value is “low polyreactivity”.

As to “QVQLVESGGGLVQAGGRLRLSCAASGSILGAYTMGWYRQAPGKERELVAAITRRGGSTYYSDSVKGRFTISRDNAKNTVYLQMNSLKPEDTAVYYCNAEYGVWYDYLVGPYDYWGQGNQVTVSS”, the “polyreactivity (PSR sort gate)” value is on record as “low polyreactivity”.

As for “QVQLVESGGGLDQAGGSLRLISAASGLTLRRYAMGWYRQAPGKERELVASINTGTSTKYADSVKGRFTISRDNAKNTDYLQLNSLKPEDTAFYYCAARPAAQGYGYWGQGTQVTVSS”, the “polyreactivity (PSR sort gate)” value is on record as “high polyreactivity”.

For the sequence “QVQLVESGGGLDQAGGSLRLSCAASGRIFRRYAMGWYRQAPGKERELVAAISTRGGSTYYADSVKGRFTISRDHAKNTVYLQMNSLKPEDTAVYYCNAEARSRRYRYDYWGQGTQVTVSS”, the “polyreactivity (PSR sort gate)” value is given as “high polyreactivity”.
